{"source": "patent US20050065082A1", "about": "(published 2005)", "binders": {"B1": {"name": "His-JNK3 (activated human JNK3 (JNK3α1) with an N-terminal histidine-tag) (enzyme, UniProt P53779-2 1-422, looked up)", "chain": "MSLHFLYYCSEPTLDVKIAFCQGFDKQVDVSYIAKHYNMSKSKVDNQFYSVEVGDSTFTVLKRYQNLKPIGSGAQGIVCAAYDAVLDRNVAIKKLSRPFQNQTHAKRAYRELVLMKCVNHKNIISLLNVFTPQKTLEEFQDVYLVMELMDANLCQVIQMELDHERMSYLLYQMLCGIKHLHSAGIIHRDLKPSNIVVKSDCTLKILDFGLARTAGTSFMMTPYVVTRYYRAPEVILGMGYKENVDIWSVGCIMGEMVRHKILFPGRDYIDQWNKVIEQLGTPCPEFMKKLQPTVRNYVENRPKYAGLTFPKLFPDSLFPADSEHNKLKASQARDLLSKMLVIDPAKRISVDDALQHPYINVWYDPAEVEAPPPQIYDKQLDEREHTIEEWKELIYKEVMNSEEKTKNGVVKGQPSPSAQVQQ", "notes": "Expressed in Sf9 cells by recombinant baculovirus, purified with Probond Resin; not shown: N-terminal His-tag and vector residues of pFastBac HT"}}, "key": {"[1]": {"biological_target": "T1, GST-BMAL1 (N-terminal GST fusion protein of human BMAL1; BMAL1b was used) (human, UniProt O00327 1-626)", "T1 construct": "Expressed in E. coli BL21; not shown: glutathione S-transferase (GST) tag encoded by the pGEX-4T vector (Amersham Pharmacia Biotech), N-terminal", "T1 sequence (O00327 whole entry, the tested form may be a part)": "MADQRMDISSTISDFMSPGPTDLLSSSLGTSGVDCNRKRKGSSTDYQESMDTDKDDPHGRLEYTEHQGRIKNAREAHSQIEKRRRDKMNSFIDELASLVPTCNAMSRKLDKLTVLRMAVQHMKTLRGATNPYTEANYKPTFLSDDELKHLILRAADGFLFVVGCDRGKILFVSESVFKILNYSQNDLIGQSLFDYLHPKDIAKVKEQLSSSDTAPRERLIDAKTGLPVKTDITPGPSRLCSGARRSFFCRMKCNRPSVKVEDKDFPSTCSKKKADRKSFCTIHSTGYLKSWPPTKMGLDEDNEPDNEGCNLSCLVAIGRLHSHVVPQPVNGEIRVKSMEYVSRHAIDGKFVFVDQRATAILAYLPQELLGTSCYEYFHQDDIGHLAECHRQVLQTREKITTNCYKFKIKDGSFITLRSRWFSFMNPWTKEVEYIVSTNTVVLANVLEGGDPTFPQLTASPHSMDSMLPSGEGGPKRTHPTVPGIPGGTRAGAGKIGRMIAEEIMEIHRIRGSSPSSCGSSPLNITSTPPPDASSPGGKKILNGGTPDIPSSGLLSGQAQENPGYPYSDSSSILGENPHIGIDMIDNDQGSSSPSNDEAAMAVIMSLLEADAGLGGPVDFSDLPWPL", "experiment": "not described, Example 3 holds only kinase assays"}, "[2]": {"biological_target": "T2, GST-BPL1 (N-terminal GST fusion protein of human BPL1, holocarboxylase synthetase) (human, UniProt P50747 1-726)", "T2 construct": "Expressed in E. coli BL21; not shown: glutathione S-transferase (GST) tag encoded by the pGEX-4T vector (Amersham Pharmacia Biotech), N-terminal", "T2 sequence": "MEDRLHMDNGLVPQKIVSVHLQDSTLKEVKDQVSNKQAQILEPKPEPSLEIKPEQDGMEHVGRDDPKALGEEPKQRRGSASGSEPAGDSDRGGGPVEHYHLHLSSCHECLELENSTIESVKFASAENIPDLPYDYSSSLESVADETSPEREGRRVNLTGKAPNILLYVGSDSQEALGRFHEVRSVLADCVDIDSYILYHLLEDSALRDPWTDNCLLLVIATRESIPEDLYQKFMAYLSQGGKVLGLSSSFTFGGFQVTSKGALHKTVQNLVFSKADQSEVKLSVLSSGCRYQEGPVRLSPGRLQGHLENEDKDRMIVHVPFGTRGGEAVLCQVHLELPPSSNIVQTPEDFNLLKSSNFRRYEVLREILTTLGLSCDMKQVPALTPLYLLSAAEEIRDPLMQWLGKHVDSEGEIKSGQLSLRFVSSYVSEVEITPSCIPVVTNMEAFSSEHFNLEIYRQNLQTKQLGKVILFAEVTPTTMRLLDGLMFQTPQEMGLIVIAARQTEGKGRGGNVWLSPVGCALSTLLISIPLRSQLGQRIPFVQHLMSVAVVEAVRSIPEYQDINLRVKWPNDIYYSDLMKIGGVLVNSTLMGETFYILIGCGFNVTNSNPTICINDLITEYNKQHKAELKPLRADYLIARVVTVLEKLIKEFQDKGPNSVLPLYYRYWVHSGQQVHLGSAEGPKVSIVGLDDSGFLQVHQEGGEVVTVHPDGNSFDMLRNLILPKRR", "experiment": "not described, Example 4 holds only kinase assays"}}}
{"binder": "B1", "values": [{"measurement": "binding result", "setting": "[1]", "value": "binds"}, {"measurement": "binding result", "setting": "[2]", "value": "binds"}]}
